The source of these data is article PMC8770954.

Assay in all cases: SPR; imaging SPR (IBIS MX96); IgG immobilised on a carboxymethyldextran sensor (CMD200M) by carbodiimide chemistry with a Continuous Flow Microspotter, printed at 300 and 150 nM; soluble receptor as analyte from 20 uM, 1:3 over 8 points; 5 min association and 5 min dissociation; equilibrium KD (Scrubber 2)
Assay [1] concerns the target Rh7B2 IgG1 (rhesusized variant of human 7B2) (rhesus macaque (Macaca mulatta)).
Assay [2] deals with RhDH677.3 IgG1 (rhesusized variant of human DH677.3) (rhesus macaque (Macaca mulatta)).
RhDH677.3 IgG1 (rhesusized variant of human DH677.3) (rhesus macaque (Macaca mulatta)), sequence (heavy, as listed by the source, chain 1 of 2): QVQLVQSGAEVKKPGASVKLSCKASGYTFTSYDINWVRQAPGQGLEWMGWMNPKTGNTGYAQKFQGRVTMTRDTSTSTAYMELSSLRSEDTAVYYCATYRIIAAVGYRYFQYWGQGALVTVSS
RhDH677.3 IgG1 (rhesusized variant of human DH677.3) (rhesus macaque (Macaca mulatta)), sequence (light, as listed by the source, chain 2 of 2): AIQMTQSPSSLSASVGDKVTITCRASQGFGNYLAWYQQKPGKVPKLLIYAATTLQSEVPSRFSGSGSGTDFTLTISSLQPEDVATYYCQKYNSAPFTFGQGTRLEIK
Assay [3] addresses RhDH827 IgG1 (rhesusized variant of human DH827) (rhesus macaque (Macaca mulatta)).

human FcγRIIIa (F158), sequence (P08637 17-208): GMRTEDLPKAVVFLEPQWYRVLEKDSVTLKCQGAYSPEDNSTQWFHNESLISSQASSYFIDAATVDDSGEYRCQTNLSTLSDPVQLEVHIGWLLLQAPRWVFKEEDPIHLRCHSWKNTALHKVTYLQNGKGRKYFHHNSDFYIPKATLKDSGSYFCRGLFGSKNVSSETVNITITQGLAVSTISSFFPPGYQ
Rh7B2 IgG1 (rhesusized variant of human 7B2) (rhesus macaque (Macaca mulatta)), sequence (heavy, as listed by the source, chain 1 of 2): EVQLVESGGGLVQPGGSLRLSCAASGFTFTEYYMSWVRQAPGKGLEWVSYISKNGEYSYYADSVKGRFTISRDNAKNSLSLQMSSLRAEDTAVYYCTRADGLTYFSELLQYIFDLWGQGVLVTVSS
Rh7B2 IgG1 (rhesusized variant of human 7B2) (rhesus macaque (Macaca mulatta)), sequence (light, as listed by the source, chain 2 of 2): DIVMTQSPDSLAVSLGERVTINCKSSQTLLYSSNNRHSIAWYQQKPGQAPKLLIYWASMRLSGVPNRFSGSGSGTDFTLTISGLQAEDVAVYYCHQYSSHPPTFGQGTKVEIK
RhDH827 IgG1 (rhesusized variant of human DH827) (rhesus macaque (Macaca mulatta)), sequence (heavy, as listed by the source, chain 1 of 2): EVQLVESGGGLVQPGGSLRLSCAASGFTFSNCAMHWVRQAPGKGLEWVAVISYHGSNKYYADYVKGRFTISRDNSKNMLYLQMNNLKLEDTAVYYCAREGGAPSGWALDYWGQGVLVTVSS
RhDH827 IgG1 (rhesusized variant of human DH827) (rhesus macaque (Macaca mulatta)), sequence (light, as listed by the source, chain 2 of 2): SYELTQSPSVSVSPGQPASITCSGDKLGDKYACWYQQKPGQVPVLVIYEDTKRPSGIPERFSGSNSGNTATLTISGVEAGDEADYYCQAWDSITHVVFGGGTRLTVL

With rhesus macaque FcγRIIb-1 (receptor), the Kd in assay [1], in assay [2] and in assay [3] was 3.7 µM each time.
As for “human FcγRIIIa (F158) (from UniProt P08637 17-208) (receptor)”, the Kd in assay [1] was 3.8 µM; in assay [2], 3.8 µM; in assay [3] it was 4.1 µM.
For “human FcγRIIb (from UniProt P31994 43-217) (receptor)”, the Kd in assay [1] turned out to be 8.5 µM; in assay [2], 7.9 µM.
Turning to rhesus macaque FcγRIIa-2 (receptor), the equilibrium dissociation constant (Kd) in assay [1] is 5.5 µM; in assay [2], 4.9 µM; in assay [3] it was 5.5 µM.
For the substance rhesus macaque FcγRIIa-4 (receptor), the Kd was found to be 7.7 µM in assay [1], 6.2 µM in assay [2] and 6.9 µM in assay [3].
Regarding rhesus macaque FcγRIIa-1 (receptor), the Kd in assay [1] was 6 µM; in assay [2], 4.7 µM; in assay [3] it was 5.7 µM.
On to “human FcγRIIa (H131) (from UniProt P12318 34-217) (receptor)”, for which the results for the Kd in assay [1] and in assay [3] were 4.4 µM and 3.7 µM, respectively.
